Data as given in patent US8703918.

Biological target: prostate specific membrane antigen (PSMA) (human) (UniProt Q04609)
Test: FACS on LNCaP (PSMA+) cells; negative control, background signal

Chain of prostate specific membrane antigen (PSMA) (human) (Q04609 whole entry): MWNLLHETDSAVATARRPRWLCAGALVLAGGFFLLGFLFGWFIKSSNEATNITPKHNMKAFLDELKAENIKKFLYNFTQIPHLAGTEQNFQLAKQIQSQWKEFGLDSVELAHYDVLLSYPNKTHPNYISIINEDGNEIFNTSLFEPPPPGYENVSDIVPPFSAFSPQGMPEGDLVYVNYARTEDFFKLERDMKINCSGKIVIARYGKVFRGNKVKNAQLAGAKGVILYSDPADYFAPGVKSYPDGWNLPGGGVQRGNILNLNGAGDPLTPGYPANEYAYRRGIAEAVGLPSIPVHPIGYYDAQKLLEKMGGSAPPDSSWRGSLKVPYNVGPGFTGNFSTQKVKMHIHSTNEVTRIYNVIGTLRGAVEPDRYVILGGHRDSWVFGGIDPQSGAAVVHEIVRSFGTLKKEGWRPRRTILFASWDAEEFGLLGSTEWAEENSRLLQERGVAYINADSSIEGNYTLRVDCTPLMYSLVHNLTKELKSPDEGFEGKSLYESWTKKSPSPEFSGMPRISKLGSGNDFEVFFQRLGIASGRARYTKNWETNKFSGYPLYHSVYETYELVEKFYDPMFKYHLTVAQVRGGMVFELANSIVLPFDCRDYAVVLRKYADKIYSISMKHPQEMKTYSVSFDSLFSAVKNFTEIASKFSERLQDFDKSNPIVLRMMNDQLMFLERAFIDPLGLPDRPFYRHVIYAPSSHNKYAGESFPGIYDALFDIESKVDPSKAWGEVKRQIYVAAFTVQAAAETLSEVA

Q: Which MFI does the source give for avidin-FITC here?
A: The MFI was 161 MFI.
